Values of other authors in patent US6046224A, “12 (S)--hete receptor blockers” (City of Hope, priority 1998, dated 2000).

Experiments:
CHO-AT1a cells [1] = conditions: CHO-AT1a cells; 0.1 µM; cited from earlier work
CHO-AT1a cells [2] = conditions: cited from earlier work

For “AII: growth factor and potent vasoconstrictor AII (DRVYIHPF; Angiotensin-2; UniProt P01019 25-32, looked up)”, the “increase in cell proliferation” value (CHO-AT1a cells [1]) is given as 2 fold and the “increase in 12(S)-HETE formation” value (CHO-AT1a cells [2]) is given as 2 fold.
